Biological target: T7 peptide-added FC99 protein having T7 peptide added to the N-terminal of the amino acid sequence described as SEQ ID NO: 1 (human) (UniProt Q92529)
Test: cell-based or functional assay

UniProt Q92529, sequence (Q92529 other isoform, or with tags, fused parts or gaps limits assumed): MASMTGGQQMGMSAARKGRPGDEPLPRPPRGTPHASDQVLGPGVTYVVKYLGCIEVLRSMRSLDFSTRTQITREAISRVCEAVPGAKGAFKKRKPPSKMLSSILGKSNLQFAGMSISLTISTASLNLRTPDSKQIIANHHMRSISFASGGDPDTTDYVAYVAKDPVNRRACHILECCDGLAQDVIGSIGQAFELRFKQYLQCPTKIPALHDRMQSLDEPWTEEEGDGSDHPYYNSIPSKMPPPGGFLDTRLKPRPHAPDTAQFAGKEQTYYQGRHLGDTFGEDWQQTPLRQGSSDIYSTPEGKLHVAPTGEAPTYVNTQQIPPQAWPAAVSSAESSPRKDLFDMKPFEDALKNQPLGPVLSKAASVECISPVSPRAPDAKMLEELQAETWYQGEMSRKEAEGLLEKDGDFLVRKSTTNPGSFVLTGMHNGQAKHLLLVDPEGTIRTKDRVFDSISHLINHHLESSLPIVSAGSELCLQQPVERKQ

TrkB receptor activated by the administration of BDNF
BDNF-dependent increase in the tyrosine phosphorylation of the FC99 protein (band densities of Lanes 2 and 3, NIH Image): 2 fold

— patent US6545141
